Paper PMC5076501

What was measured:
HSP70-1A, P0DMV8 = test: co-immunoprecipitation (anti-GFP IP) with immunoblot densitometry; conditions: chain shown with the change; detergent lysates from stably transfected HEK293 cells; three independent experiments; parent: est. 0.32; read off a plot
calnexin, P27824 = target: T1, calnexin, P27824; test: as above; conditions: chain shown with the change; detergent lysates from stably transfected HEK293 cells; three independent experiments; parent: est. 0.73; read off a plot
T1 chain: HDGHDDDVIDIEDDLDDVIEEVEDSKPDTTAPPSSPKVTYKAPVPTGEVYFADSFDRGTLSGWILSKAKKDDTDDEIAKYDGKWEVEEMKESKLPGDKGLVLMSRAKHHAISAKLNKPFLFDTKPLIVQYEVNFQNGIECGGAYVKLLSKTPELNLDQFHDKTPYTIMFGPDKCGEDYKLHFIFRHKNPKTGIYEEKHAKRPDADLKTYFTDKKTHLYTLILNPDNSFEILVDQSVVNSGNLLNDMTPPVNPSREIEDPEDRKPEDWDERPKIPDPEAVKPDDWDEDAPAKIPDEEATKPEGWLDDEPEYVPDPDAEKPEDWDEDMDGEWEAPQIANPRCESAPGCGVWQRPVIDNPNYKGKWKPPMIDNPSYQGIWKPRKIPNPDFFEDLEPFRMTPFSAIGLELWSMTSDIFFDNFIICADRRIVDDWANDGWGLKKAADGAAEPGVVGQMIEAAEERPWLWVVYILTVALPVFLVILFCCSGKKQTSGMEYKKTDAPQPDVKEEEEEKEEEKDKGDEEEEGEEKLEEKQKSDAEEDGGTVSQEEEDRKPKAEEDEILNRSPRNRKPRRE

Chain of HSP70-1A, P0DMV8 (P0DMV8 whole entry): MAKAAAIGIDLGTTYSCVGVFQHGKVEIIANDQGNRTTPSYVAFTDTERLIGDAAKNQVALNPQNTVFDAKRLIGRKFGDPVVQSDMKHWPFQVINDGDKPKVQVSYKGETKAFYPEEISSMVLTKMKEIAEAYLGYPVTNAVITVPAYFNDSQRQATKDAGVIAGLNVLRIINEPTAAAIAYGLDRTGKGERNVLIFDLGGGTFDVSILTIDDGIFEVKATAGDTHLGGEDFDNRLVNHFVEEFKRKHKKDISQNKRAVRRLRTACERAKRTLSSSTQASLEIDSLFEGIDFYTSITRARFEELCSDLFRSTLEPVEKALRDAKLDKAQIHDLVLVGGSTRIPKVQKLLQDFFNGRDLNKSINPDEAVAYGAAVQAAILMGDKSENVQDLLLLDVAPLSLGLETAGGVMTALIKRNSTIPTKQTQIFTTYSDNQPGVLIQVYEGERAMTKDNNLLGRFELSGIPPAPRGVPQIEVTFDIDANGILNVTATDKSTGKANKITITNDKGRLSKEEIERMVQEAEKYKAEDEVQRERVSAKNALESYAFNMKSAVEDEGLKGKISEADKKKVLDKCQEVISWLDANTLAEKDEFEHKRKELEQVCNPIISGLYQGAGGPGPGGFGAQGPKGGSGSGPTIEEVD

- response (integrated density (chaperones/DAT)) (HSP70-1A, P0DMV8): 0.73
- response (integrated density (chaperones/DAT)) (calnexin, P27824): 1.7
B1: YFP-tagged wild-type Drosophila melanogaster dopamine transporter, Q7K4Y6 G108Q (protein)
chain: MSPTGHISKSKTPTPHDNDNNSISDERETWSGKVDFLLSVIGFAVDLANVWRFPYLCYKNGGGAFLVPYGIMLVVGGIPLFYMELALGQHNRKGAITCWGRLVPLFKQIGYAVVLIAFYVDFYYNVIIAWSLRFFFASFTNSLPWTSCNNIWNTPNCRPFESQNASRVPVIGNYSDLYAMGNQSLLYNETYMNGSSLDTSAVGHVEGFQSAASEYFNRYILELNRSEGIHDLGAIKWDMALCLLIVYLICYFSLWKGISTSGKVVWFTALFPYAVLLILLIRGLTLPGSFLGIQYYLTPNFSAIYKAEVWVDAATQVFFSLGPGFGVLLAYASYNKYHNNVYKDALLTSFINSATSFIAGFVIFSVLGYMAHTLGVRIEDVATEGPGLVFVVYPAAIATMPASTFWALIFFMMLLTLGLDSSFGGSEAIITALSDEFPKIKRNRELFVAGLFSLYFVVGLASCTQGGFYFFHLLDRYAAGYSILVAVFFEAIAVSWIYGTNRFSEDIRDMIGFPPGRYWQVCWRFVAPIFLLFITVYGLIGYEPLTYADYVYPSWANALGWCIAGSSVVMIPAVAIFKLLSTPGSLRQRFTILTTPWRDQQSMAMVLNGVTTEVTVVRLTDTETAKEPVDV
